Reference: patent publication US20230398218A1, “RAS NEOANTIGENS AND USES THEREOF” (priority 2020, published 2023)

How the values were obtained:
Conditions in all cases: remark: other sources report otherwise
HLA-A02.01 (human) [1] = assay: competition with radiolabeled reference peptide on prepared MHC class I
HLA-A24.02 (human) [2] = assay: as above
HLA-A02.01 (human) [3] = assay: pMHC-I complex dissociation at 37 C, radiolabeled b2m
HLA-A24.02 (human) [4] = assay: as above
HLA-A01.01 (human) [5] = assay: competition with radiolabeled reference peptide on prepared MHC class I
HLA-A01.01 (human) [6] = assay: pMHC-I complex dissociation at 37 C, radiolabeled b2m
HLA-B07.02 (human) [7] = assay: competition with radiolabeled reference peptide on prepared MHC class I
HLA-B07.02 (human) [8] = assay: pMHC-I complex dissociation at 37 C, radiolabeled b2m

Affinity (HLA-A02.01 (human) [1]) [nM] | Affinity (HLA-A24.02 (human) [2]) [µM] | Stability (half-life (hr.)) (HLA-A02.01 (human) [3]) [min] | Stability (half-life (hr.)) (HLA-A24.02 (human) [4]) [min] | Affinity (HLA-A01.01 (human) [5]) [µM] | Stability (half-life (hr.)) (HLA-A01.01 (human) [6]) [min] | Affinity (HLA-B07.02 (human) [7]) [nM] | Stability (half-life (hr.)) (HLA-B07.02 (human) [8]) [h] | Binder
653 | 14.1 | 30.9 | 0 |  |  |  |  | IMQLMPFGCL
 |  |  |  | 2.89 | 6.22 |  |  | LTSTVQLIM
67.7 |  | 183 |  |  |  | 866 | 0 | SLLNYLREM
7260 |  | 0 |  |  |  |  |  | STVQLIMQL
1010 |  | 0 |  |  |  |  | 0 | MANGSLLNYL
16.3 | 18.9 | 22.9 | 0 |  |  |  |  | MQLMPFGCLL
1210 |  | 22.2 |  |  |  |  |  | IMQLMPFGC
193 |  | 20.4 | 22.1 |  |  |  |  | QLIMQLMPF
116 |  | 22.1 |  |  |  | 1590 | 0 | MQLMPFGCL
537 |  | 0 |  | 8.28 | 0 |  |  | CLTSTVQLIM
4940 | 4.1 | 0 | 0 |  |  |  |  | VQLIMQLMPF
3340 |  | 0 |  |  |  |  |  | LIMQLMPFG
4000 |  | 0 |  |  |  |  |  | YMANGSLLN
5210 |  | 0 |  |  |  |  |  | QLIMQLMPFG
